In patent publication US20070148163A1 (Kyowa Kirin, published 2007):
cellulose membrane = not defined here

Key:
Test in all cases: SPOT peptide array (13-mers on cellulose membrane), Western-type detection, spot intensity by LumiImager
[1] = target: T1, 12th of the 82 13-mer peptides covering the extracellular region of CD40 (reading uncertain)
T1 construct: also called 12th peptide
T1 peptide: Ac-PGQKLVSDCTEFT-{cellulose membrane}
Description: (§1) The reaction thereafter was carried out based on a conventional Western analysis (see Reineke, U. et al. (2001), “Epitope mapping with synthetic peptides prepared by SPOT synthesis.” Antibody Engineering (Springer Lab Manual) Eds.: Kontermann/Dubel, 433-459, for example). In the analysis, coloring intensity of each spot was quantified using Lumilmager™ (Boehringer-Mannheim Corp.) (FIG. 1A-1, 1A-2, 1B-1 and B-2).

[2] = target: T2, 13th of the 82 13-mer peptides covering the extracellular region of CD40 (reading uncertain)
T2 construct: also called 13th peptide
T2 peptide: Ac-QKLVSDCTEFTET-{cellulose membrane}
Description: as §1

[3] = target: T3, 14th of the 82 13-mer peptides covering the extracellular region of CD40 (cysteine pairing not given here; reading uncertain)
T3 construct: also called 14th peptide
T3 peptide: Ac-LVSDCTEFTETEC-{cellulose membrane}
Description: as §1

[4] = target: T4, 15th of the 82 13-mer peptides covering the extracellular region of CD40 (cysteine pairing not given here; reading uncertain)
T4 construct: also called 15th peptide
T4 peptide: Ac-SDCTEFTETECLP-{cellulose membrane}
Description: as §1

[5] = target: T5, 16th of the 82 13-mer peptides covering the extracellular region of CD40 (cysteine pairing not given here; reading uncertain)
T5 construct: also called 16th peptide
T5 peptide: Ac-CTEFTETECLPCG-{cellulose membrane}
Description: as §1

[6] = target: T6, 17th of the 82 13-mer peptides covering the extracellular region of CD40 (cysteine pairing not given here; reading uncertain)
T6 construct: also called 17th peptide
T6 peptide: Ac-EFTETECLPCGES-{cellulose membrane}
Description: as §1

[7] = target: T7, 18th of the 82 13-mer peptides covering the extracellular region of CD40 (cysteine pairing not given here; reading uncertain)
T7 construct: also called 18th peptide
T7 peptide: Ac-TETECLPCGESEF-{cellulose membrane}
Description: as §1

[8] = target: T8, 19th of the 82 13-mer peptides covering the extracellular region of CD40 (cysteine pairing not given here; reading uncertain)
T8 construct: also called 19th peptide
T8 peptide: Ac-TECLPCGESEFLD-{cellulose membrane}
Description: as §1

[9] = target: T9, 20th of the 82 13-mer peptides covering the extracellular region of CD40 (cysteine pairing not given here; reading uncertain)
T9 construct: also called 20th peptide
T9 peptide: Ac-CLPCGESEFLDTW-{cellulose membrane}
Description: as §1

[10] = target: T10, 21st of the 82 13-mer peptides covering the extracellular region of CD40 (reading uncertain)
T10 construct: also called 21st peptide
T10 peptide: Ac-PCGESEFLDTWNR-{cellulose membrane}
Description: as §1

[11] = target: T11, 22nd of the 82 13-mer peptides covering the extracellular region of CD40 (reading uncertain)
T11 construct: also called 22nd peptide
T11 peptide: Ac-GESEFLDTWNRET-{cellulose membrane}
Description: as §1

[12] = target: T12, 23rd of the 82 13-mer peptides covering the extracellular region of CD40 (reading uncertain)
T12 construct: also called 23rd peptide
T12 peptide: Ac-SEFLDTWNRETHC-{cellulose membrane}
Description: as §1

[13] = target: T13, 64th of the 82 13-mer peptides covering the extracellular region of CD40 (reading uncertain)
T13 construct: also called 64th peptide
T13 peptide: Ac-PVGFFSNVSSAFE-{cellulose membrane}
Description: as §1

binding result [1]: binds
binding result [2]: binds
binding result [3]: binds
binding result [4]: binds
binding result [5]: binds
binding result [6]: binds
binding result [7]: binds
binding result [8]: binds
binding result [9]: binds
binding result [10]: binds
binding result [11]: binds
binding result [12]: binds
binding result [13]: binds
B1: 2105 antibody (original IgG2) (antibody, V domains shown)
VH: EVQLVESGGGLVQPGRSLRLSCAASGFTFDDYAMHWVRQAPGKGLEWVSGISWNSGSLVHADSVKGRFTISRDNAKNSLYLQMNSLRAEDTALYYCARDRLFRGVRYYGMDVWGQGTTVTVSS
VL: EIVLTQSPATLSLSPGERATLSCRASQSVSSYLAWYQQKPGQAPRLLIYDASNRATGIPARFSGSGSGTDFTLTISSLEPEDFAVYYCQQRSHWLTFGGGTKVEIK
